Test results: patent publication US20230203159A1

Key:
[1] = biological target: Cynomolgus Monkey CD3epsilon protein (Cynomolgus monkey) (UniProt Q95LI5); test: ELISA, protein coated on plate
[2] = biological target: Human CD3 epsilon (CD3epsilon) protein (His Tag) (human) (UniProt P07766); test: ELISA, protein coated on plate
[3] = biological target: mouse CD3epsilon protein (mouse) (UniProt P22646); test: ELISA, protein coated on plate
[4] = biological target: human CD3 receptor on T cell surface (Jurkat cells, human CD4 T cells) (human) (UniProt P07766); test: flow cytometry on Jurkat cells, one site saturation fit
Sequence of human CD3 receptor on T cell surface (Jurkat cells, human CD4 T cells) (human) (P07766 23-207): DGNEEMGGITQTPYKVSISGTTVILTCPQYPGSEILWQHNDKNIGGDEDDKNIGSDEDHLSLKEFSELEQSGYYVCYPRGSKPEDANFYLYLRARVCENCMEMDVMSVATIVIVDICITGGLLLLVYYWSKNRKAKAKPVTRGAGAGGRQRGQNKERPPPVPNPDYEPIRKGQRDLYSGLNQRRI

Sequence of Human CD3 epsilon (CD3epsilon) protein (His Tag) (human) (P07766 23-126): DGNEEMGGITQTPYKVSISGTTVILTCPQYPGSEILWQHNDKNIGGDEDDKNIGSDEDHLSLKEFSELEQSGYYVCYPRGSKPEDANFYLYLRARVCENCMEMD
Sequence of Cynomolgus Monkey CD3epsilon protein (Cynomolgus monkey) (Q95LI5 22-117 limits assumed): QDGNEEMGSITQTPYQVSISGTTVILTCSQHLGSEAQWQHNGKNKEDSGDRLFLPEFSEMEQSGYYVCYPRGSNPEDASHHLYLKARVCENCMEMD
Sequence of mouse CD3epsilon protein (mouse) (P22646 22-108 limits assumed): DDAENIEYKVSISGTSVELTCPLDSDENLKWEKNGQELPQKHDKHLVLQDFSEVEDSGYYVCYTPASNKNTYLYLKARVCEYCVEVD

| Substance | ELISA A450 [1] [A450] | ELISA A450 [2] [A450] | ELISA A450 [3] [A450] | Best fit- Bmax [4] |
| --- | --- | --- | --- | --- |
| Negative Control | 0.046 | 0.046 | 0.179 | – |
| Benchmark antibody OKT3 | – | – | – | 9.41e-11 |
